Laboratory results reported in patent US20120331589A1.

Target: Cry1Da receptor protein(s) / binding site in Spodoptera frugiperda (fall armyworm) brush border membrane vesicles (Spodoptera frugiperda)
Experiment: homologous competition: displacement of 0.5 nM 125I-Cry1Da core toxin from 150 ug/mL S. frugiperda BBMV

For “Cry1Da core toxin protein (non-radiolabeled) (from UniProt P19415 28-594)”, the IC50 was 5 nM.
